From doi:10.1101/411223 (bioRxiv, 2018)

T1: Kap114p (Δ347-371) (S. cerevisiae, UniProt P53067 1-1004, Δ347-371)
T1 sequence (looked up): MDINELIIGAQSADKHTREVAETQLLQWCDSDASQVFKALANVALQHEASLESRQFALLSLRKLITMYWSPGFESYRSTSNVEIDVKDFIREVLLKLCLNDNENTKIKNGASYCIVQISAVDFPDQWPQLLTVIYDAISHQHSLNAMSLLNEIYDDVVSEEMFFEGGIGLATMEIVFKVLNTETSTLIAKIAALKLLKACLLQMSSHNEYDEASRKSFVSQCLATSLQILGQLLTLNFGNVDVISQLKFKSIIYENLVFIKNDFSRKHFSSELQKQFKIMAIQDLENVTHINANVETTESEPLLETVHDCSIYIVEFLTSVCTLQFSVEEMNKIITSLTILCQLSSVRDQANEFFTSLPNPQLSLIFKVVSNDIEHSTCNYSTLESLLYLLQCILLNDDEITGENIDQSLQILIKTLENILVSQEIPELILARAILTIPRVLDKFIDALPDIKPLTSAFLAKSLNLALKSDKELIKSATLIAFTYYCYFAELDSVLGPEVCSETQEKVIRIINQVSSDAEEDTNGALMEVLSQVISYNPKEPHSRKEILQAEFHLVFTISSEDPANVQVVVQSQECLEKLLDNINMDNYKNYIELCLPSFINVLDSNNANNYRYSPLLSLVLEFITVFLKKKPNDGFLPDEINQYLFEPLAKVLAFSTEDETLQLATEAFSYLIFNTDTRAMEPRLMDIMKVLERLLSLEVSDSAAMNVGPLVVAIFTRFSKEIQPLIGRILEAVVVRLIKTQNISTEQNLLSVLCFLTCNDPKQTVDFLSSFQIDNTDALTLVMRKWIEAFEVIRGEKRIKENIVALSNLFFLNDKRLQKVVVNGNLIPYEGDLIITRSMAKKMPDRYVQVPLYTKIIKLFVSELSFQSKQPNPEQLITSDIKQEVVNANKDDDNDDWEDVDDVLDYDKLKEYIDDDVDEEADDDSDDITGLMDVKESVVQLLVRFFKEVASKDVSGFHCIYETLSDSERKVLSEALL

T2: Kap114p (Δ899-956) (S. cerevisiae, UniProt P53067 1-1004, Δ899-956)
T2 sequence (looked up): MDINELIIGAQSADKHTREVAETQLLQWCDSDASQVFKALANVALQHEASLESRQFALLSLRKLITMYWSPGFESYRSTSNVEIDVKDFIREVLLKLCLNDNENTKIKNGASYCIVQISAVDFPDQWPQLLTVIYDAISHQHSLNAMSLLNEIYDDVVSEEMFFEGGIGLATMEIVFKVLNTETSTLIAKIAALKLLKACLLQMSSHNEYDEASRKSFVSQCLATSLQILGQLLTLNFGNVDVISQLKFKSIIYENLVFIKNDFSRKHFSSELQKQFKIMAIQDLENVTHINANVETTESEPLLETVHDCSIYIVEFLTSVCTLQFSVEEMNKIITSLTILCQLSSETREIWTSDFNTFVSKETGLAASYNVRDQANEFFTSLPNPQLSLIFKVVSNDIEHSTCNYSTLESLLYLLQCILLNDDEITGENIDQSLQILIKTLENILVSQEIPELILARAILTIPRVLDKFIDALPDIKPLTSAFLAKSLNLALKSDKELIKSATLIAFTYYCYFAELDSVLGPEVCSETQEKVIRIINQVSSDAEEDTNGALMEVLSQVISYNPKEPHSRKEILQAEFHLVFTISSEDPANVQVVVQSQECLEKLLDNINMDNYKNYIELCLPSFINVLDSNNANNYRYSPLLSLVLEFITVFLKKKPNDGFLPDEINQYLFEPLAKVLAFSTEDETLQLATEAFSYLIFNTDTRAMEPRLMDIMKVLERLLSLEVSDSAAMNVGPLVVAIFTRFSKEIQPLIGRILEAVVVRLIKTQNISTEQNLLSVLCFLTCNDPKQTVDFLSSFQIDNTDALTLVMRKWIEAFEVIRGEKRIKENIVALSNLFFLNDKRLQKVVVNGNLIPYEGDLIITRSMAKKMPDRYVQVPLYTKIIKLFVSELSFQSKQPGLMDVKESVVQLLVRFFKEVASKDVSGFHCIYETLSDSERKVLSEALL


How the values were obtained:
[1] = molecular target: His-tagged RanQ69L, P62826; assay: SEC; conditions: remark: other sources report otherwise
[2] = molecular target: T1, Kap114p (Δ347-371); assay: pull-down
[3] = molecular target: T2, Kap114p (Δ899-956); assay: pull-down

| stoichiometry N [1] | binding result [2] | binding result [3] | Binder |
| --- | --- | --- | --- |
| 1 |  |  | Kap114p, P53067 1-1004 (natural protein) MDINELIIGAQSADKHTREVAETQLLQWCDSDASQVFKALANVALQHEASLESRQFALLSLRKLITMYWSPGFESYRSTSNVEIDVKDFIREVLLKLCLNDNENTKIKNGASYCIVQISAVDFPDQWPQLLTVIYDAISHQHSLNAMSLLNEIYDDVVSEEMFFEGGIGLATMEIVFKVLNTETSTLIAKIAALKLLKACLLQMSSHNEYDEASRKSFVSQCLATSLQILGQLLTLNFGNVDVISQLKFKSIIYENLVFIKNDFSRKHFSSELQKQFKIMAIQDLENVTHINANVETTESEPLLETVHDCSIYIVEFLTSVCTLQFSVEEMNKIITSLTILCQLSSETREIWTSDFNTFVSKETGLAASYNVRDQANEFFTSLPNPQLSLIFKVVSNDIEHSTCNYSTLESLLYLLQCILLNDDEITGENIDQSLQILIKTLENILVSQEIPELILARAILTIPRVLDKFIDALPDIKPLTSAFLAKSLNLALKSDKELIKSATLIAFTYYCYFAELDSVLGPEVCSETQEKVIRIINQVSSDAEEDTNGALMEVLSQVISYNPKEPHSRKEILQAEFHLVFTISSEDPANVQVVVQSQECLEKLLDNINMDNYKNYIELCLPSFINVLDSNNANNYRYSPLLSLVLEFITVFLKKKPNDGFLPDEINQYLFEPLAKVLAFSTEDETLQLATEAFSYLIFNTDTRAMEPRLMDIMKVLERLLSLEVSDSAAMNVGPLVVAIFTRFSKEIQPLIGRILEAVVVRLIKTQNISTEQNLLSVLCFLTCNDPKQTVDFLSSFQIDNTDALTLVMRKWIEAFEVIRGEKRIKENIVALSNLFFLNDKRLQKVVVNGNLIPYEGDLIITRSMAKKMPDRYVQVPLYTKIIKLFVSELSFQSKQPNPEQLITSDIKQEVVNANKDDDNDDWEDVDDVLDYDKLKEYIDDDVDEEADDDSDDITGLMDVKESVVQLLVRFFKEVASKDVSGFHCIYETLSDSERKVLSEALL |
|  | binds | binds | GST-fused yTBP (61-240) (domain or fragment, S. cerevisiae, UniProt P13393 61-240, looked up) SGIVPTLQNIVATVTLGCRLDLKTVALHARNAEYNPKRFAAVIMRIREPKTTALIFASGKMVVTGAKSEDDSKLASRKYARIIQKIGFAAKFTDFKIQNIVGSCDVKFPIRLEGLAFSHGTFSSYEPELFPGLIYRMVKPKIVLLIFVSGKIVLTGAKQREEIYQAFEAIYPVLSEFRKM |
